For one molecule, Kd results are on record in patent publication US20250319180A1.

The experiment concerns the target human LY6H expressed on 293T cells (plasmid BBP491, M1-P140 plus Myc-DDK) (human) (UniProt O94772). The experiment can be described thus: on-cell affinity by flow cytometry: unconjugated 12G7 (0.05-100 nM) competes with 1 nM PE-conjugated 12G7 on 293T cells expressing human LY6H; table row 293T-huLY6H.

B1: 12G7 (antibody, V domains shown)
VH: QVQLQQWGAGLLKPSETLSLTCAVYGGSFSGYYWSWIRQPPGKGLEWIGEINHSGSTYYNPSLKSRVTMSVDTSKNQFSLKLSSVTAADTAVYYCAKRWELGAFDIWGQGTMVTVSS
VL: DIQMTQSPSSLSASVGDRVTITCRASQGISNYLAWYQQKPGKVPKLLIYAASTLQSGVPSRFSGSGSGTDFTLTISSLQPEDVATYYCQKYNSAPRTFGQGTKLEIK
For B1, the Kd was 9.9 nM.
